# Experimental data reported in PMC4458873.
# Molecular target: Purified recombinant Syrian hamster vimentin (Syrian hamster) (UniProt P02544)
# Assay: cross-linking; vimentin at 3 μM, preincubated without or with 150 mM NaCl, 20 μM DBB for 1 h at 37 °C; 7.5% SDS-PAGE and WB
substance,measurement,value
Purified recombinant Syrian hamster vimentin (from UniProt P02544 1-465) (natural protein),"fold cross-linked dimer, polymerized versus non-polymerized vimentin",3.9 fold
